First the molecules themselves.
B1: Heat shock protein homolog SSE1 (Saccharomyces cerevisiae), P32589 (parent)
chain: MSTPFGLDLGNNNSVLAVARNRGIDIVVNEVSNRSTPSVVGFGPKNRYLGETGKNKQTSNIKNTVANLKRIIGLDYHHPDFEQESKHFTSKLVELDDKKTGAEVRFAGEKHVFSATQLAAMFIDKVKDTVKQDTKANITDVCIAVPPWYTEEQRYNIADAARIAGLNPVRIVNDVTAAGVSYGIFKTDLPEGEEKPRIVAFVDIGHSSYTCSIMAFKKGQLKVLGTACDKHFGGRDFDLAITEHFADEFKTKYKIDIRENPKAYNRILTAAEKLKKVLSANTNAPFSVESVMNDVDVSSQLSREELEELVKPLLERVTEPVTKALAQAKLSAEEVDFVEIIGGTTRIPTLKQSISEAFGKPLSTTLNQDEAIAKGAAFICAIHSPTLRVRPFKFEDIHPYSVSYSWDKQVEDEDHMEVFPAGSSFPSTKLITLNRTGDFSMAASYTDITQLPPNTPEQIANWEITGVQLPEGQDSVPVKLKLRCDPSGLHTIEEAYTIEDIEVEEPIPLPEDAPEDAEQEFKKVTKTVKKDDLTIVAHTFGLDAKKLNELIEKENEMLAQDKLVAETEDRKNTLEEYIYTLRGKLEEEYAPFASDAEKTKLQGMLNKAEEWLYDEGFDSIKAKYIAKYEELASLGNIIRGRYLAKEEEKKQAIRSKQEASQMAAMAEKLAAQRKAEAEKKEEKKDTEGDVDMD

This assay covers variants of B1. To be noted: with hsp71_yeast SSA1, P10591.
hsp71_yeast SSA1, P10591, sequence (P10591 whole entry): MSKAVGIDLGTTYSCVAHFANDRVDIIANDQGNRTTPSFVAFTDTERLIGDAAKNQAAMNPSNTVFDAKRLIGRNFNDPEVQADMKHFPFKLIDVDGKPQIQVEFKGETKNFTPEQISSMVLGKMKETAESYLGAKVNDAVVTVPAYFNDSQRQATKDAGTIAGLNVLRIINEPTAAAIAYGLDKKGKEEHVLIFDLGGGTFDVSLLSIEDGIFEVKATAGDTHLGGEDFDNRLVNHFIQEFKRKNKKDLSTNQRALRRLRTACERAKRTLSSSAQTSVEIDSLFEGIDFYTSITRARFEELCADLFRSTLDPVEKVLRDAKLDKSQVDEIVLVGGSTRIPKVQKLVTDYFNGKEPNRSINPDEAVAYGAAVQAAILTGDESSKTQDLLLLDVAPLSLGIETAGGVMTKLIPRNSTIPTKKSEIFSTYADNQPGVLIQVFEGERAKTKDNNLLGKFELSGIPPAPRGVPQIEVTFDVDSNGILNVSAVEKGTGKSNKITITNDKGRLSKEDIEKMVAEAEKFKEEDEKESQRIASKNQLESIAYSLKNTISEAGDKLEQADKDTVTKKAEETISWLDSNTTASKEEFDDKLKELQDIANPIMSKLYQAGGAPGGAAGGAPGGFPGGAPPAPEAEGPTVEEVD
With N572Y;E575A, the “effect of a mutation on the interaction” value is recorded as “decreasing interaction”. With T365V;N367S, the “effect of a mutation on the interaction” value is on record as “decreasing interaction”. In the case of L489A;H490A, the “effect of a mutation on the interaction” value is “decreasing interaction”.

As for D396A, the “effect of a mutation on the interaction” value was “decreasing interaction”. To A280T;N281A belongs “decreasing interaction”; to E554A;M557S;L558S, “decreasing interaction”. To F392A;F394A belongs “decreasing interaction”.
